Experimental data: patent publication US11643670B2, “Methods of enhancing chromosomal homologous recombination” (Massachusetts Institute of Technology, priority 2018, dated 2023)

What was measured:
Chd2^R1684H locus = assay: Genotyping of individual blastomeres of 2-cell embryos; format: cell-based, mouse; conditions: blastomeres collected at 24hpf, IVF strategy, co-injected with RAD51
Protocol: Zygotes were prepared by IVF as described above and cultured until 24hpf in FHM at 37° C. and 5% CO2. Two-cell embryos were transferred 10 at a time into room temperature acidified Tyrode's solution. Embryos were monitored by microscopy and were transferred back to FHM once the zona pellucida was dissolved. Individual blastomeres were collected via mechanical dissociation with a glass micropipette and transferred to 4 μL nuclease-free water. Blastomeres were then lysed and processed for genotyping as previously described.
After fertilization, the maternal and paternal pronuclei remain until the completion of S-phase, at which time the pronuclei fuse in preparation for mitosis. […] To begin to address the timing of zygotic ICHR, genotyping of individual blastomeres was performed in early 2-cell embryos generated through the IVF strategy and co-injected with RAD51. […] Because the blastomeres were collected early in the 2-cell stage, it is unlikely that all observed mosaicism resulted from editing events after the completion of mitosis. […]

Chd2 locus = assay: Chd2^R1684H knock-in by PNI/CPI with RAD51, genotyping of F0 pups; format: in vivo, mouse; conditions: 18 F0 pups, PNI and CPI, RAD51 protein 10 ng/μL
Protocol: tracrRNA, crRNAs, and ssODNs were synthesized by Integrated DNA Technologies (TABLE 1). All injection mixtures were prepared in a final volume of 50 μL according to the following methodology: Using RNase-free water, reagents, and consumables, crRNA (final concentration 0.61 μM), tracrRNA (final concentration 0.61 μM), and ultrapure Tris-HCl, pH 7.39 (final concentration 10 mM, ThermoFisher) were mixed and incubated at 95° C. for 5 minutes. The mixtures were cooled to room temperature for 10 minutes on the benchtop, and then, EnGen Cas9-NLS S. pyogenes (New England Biolabs) was added to a final concentration of 30 ng/μL. The mixtures were incubated at 37° C. for 15 minutes before adding any remaining components: ssODN (final concentration 3 ng/μL or 30 ng/μL), RAD51 (Creative Biomart, final concentration 10 ng/μL). Injection mixtures were stored on ice and briefly heated to 37° C. prior to injection. For experiments utilizing RS-1, embryos were cultured in KSOM-AA (EMD Millipore MR-121-D) with […] RS-1 (Sigma) dissolved in DMSO or DMSO (Sigma, 1:1000) for 24 hours, washed, and cultured in EmbryoMax FHM HEPES Buffered Medium (Sigma) until collection for genotyping.
Female mice (4-5 weeks old, C57BL/6N) were superovulated by IP injection of PMS (5 IU/mouse, three days prior to microinjection) and hCG (5 IU/mouse, 47 hours after PMS injection) and then paired with males. […]

B1: RAD51: recombinant human strand exchange protein RAD51 (Creative Biomart RAD51-134H), transcript variant 4 (protein, UniProt Q06609 2-339, looked up)
DNA repair protein RAD51 …: AMQMQLEANADTSVEEESFGPQPISRLEQCGINANDVKKLEEAGFHTVEAVAYAPKKELINIKGISEAKADKILAEAAKLVPMGFTTATEFHQRRSEIIQITTGSKELDKLLQGGIETGSITEMFGEFRTGKTQICHTLAVTCQLPIDRGGGEGKAMYIDTEGTFRPERLLAVAERYGLSGSDVLDNVAYARAFNTDHQTQLLYQASAMMVESRYALLIVDSATALYRTDYSGRGELSARQMHLARFLRMLLRLADEFGVAVVITNQVVAQVDGAAMFAADPKKPIGGNIIAHASTTRLYLRKGRGETRICKIYDSPCLPEAEAMFAINADGVGDAKD
B1 was tested, and the “mosaicism in embryos with an ICHR event in at least one cell” value (Chd2^R1684H locus) was 4/6, the “homozygous KI efficiency” value (Chd2 locus) was 55.5% and the “overall KI efficiency (pups with ≥1 KI allele/total pups)” value (Chd2 locus) was 61.1%.
